# In IntAct's records for PubMed 28065597:
# B1: Receptor-type tyrosine-protein phosphatase R (Homo sapiens), Q15256 (parent)
# chain: MRRAVCFPALCLLLNLHAAGCFSGNNDHFLAINQKKSGKPVFIYKHSQDIEKSLDIAPQKIYRHSYHSSSEAQVSKRHQIVNSAFPRPAYDPSLNLLAMDGQDLEVENLPIPAANVIVVTLQMDVNKLNITLLRIFRQGVAAALGLLPQQVHINRLIGKKNSIELFVSPINRKTGISDALPSEEVLRSLNINVLHQSLSQFGITEVSPEKNVLQGQHEADKIWSKEGFYAVVIFLSIFVIIVTCLMILYRLKERFQLSLRQDKEKNQEIHLSPITLQPALSEAKTVHSMVQPEQAPKVLNVVVDPQGRGAPEIKATTATSVCPSPFKMKPIGLQERRGSNVSLTLDMSSLGNIEPFVSIPTPREKVAMEYLQSASRILTRSQLRDVVASSHLLQSEFMEIPMNFVDPKEIDIPRHGTKNRYKTILPNPLSRVCLRPKNVTDSLSTYINANYIRGYSGKEKAFIATQGPMINTVDDFWQMVWQEDSPVIVMITKLKEKNEKCVLYWPEKRGIYGKVEVLVISVNECDNYTIRNLVLKQGSHTQHVKHYWYTSWPDHKTPDSAQPLLQLMLDVEEDRLASQGRGPVVVHCSAGIGRTGCFIATSIGCQQLKEEGVVDALSIVCQLRMDRGGMVQTSEQYEFVHHALCLYESRLSAETVQ
# B2: Macrophage-stimulating protein receptor (Mus musculus), Q62190 (parent)
# chain: MGLPLPLLQSSLLLMLLLRLSAASTNLNWQCPRIPYAASRDFSVKYVVPSFSAGGRVQATAAYEDSTNSAVFVATRNHLHVLGPDLQFIENLTTGPIGNPGCQTCASCGPGPHGPPKDTDTLVLVMEPGLPALVSCGSTLQGRCFLHELEPRGKALHLAAPACLFSANNNKPEACTDCVASPLGTRVTVVEQGHASYFYVASSLDPELAASFSPRSVSIRRLKSDTSGFQPGFPSLSVLPKYLASYLIKYVYSFHSGDFVYFLTVQPISVTSPPSALHTRLVRLNAVEPEIGDYRELVLDCHFAPKRRRRGAPEGTQPYPVLQAAHSAPVDAKLAVELSISEGQEVLFGVFVTVKDGGSGMGPNSVVCAFPIYHLNILIEEGVEYCCHSSNSSSLLSRGLDFFQTPSFCPNPPGGEASGPSSRCHYFPLMVHASFTRVDLFNGLLGSVKVTALHVTRLGNVTVAHMGTVDGRVLQVEIARSLNYLLYVSNFSLGSSGQPVHRDVSRLGNDLLFASGDQVFKVPIQGPGCRHFLTCWRCLRAQRFMGCGWCGDRCDRQKECPGSWQQDHCPPEISEFYPHSGPLRGTTRLTLCGSNFYLRPDDVVPEGTHQITVGQSPCRLLPKDSSSPRPGSLKEFIQELECELEPLVTQAVGTTNISLVITNMPAGKHFRVEGISVQEGFSFVEPVLTSIKPDFGPRAGGTYLTLEGQSLSVGTSRAVLVNGTQCRLEQVNEEQILCVTPPGAGTARVPLHLQIGGAEVPGSWTFHYKEDPIVLDISPKCGYSGSHIMIHGQHLTSAWHFTLSFHDGQSTVESRCAGQFVEQQQRRCRLPEYVVRNPQGWATGNLSVWGDGAAGFTLPGFRFLPPPSPLRAGLVELKPEEHSVKVEYVGLGAVADCVTVNMTVGGEVCQHELRGDVVICPLPPSLQLGKDGVPLQVCVDGGCHILSQVVRSSPGRASQRILLIALLVLILLVAVLAVALIFNSRRRKKQLGAHSLSPTTLSDINDTASGAPNHEESSESRDGTSVPLLRTESIRLQDLDRMLLAEVKDVLIPHEQVVIHTDQVIGKGHFGVVYHGEYTDGAQNQTHCAIKSLSRITEVQEVEAFLREGLLMRGLHHPNILALIGIMLPPEGLPRVLLPYMRHGDLLHFIRSPQRNPTVKDLVSFGLQVACGMEYLAEQKFVHRDLAARNCMLDESFTVKVADFGLARGVLDKEYYSVRQHRHARLPVKWMALESLQTYRFTTKSDVWSFGVLLWELLTRGAPPYPHIDPFDLSHFLAQGRRLPQPEYCPDSLYHVMLRCWEADPAARPTFRALVLEVKQVVASLLGDHYVQLTAAYVNVGPRAVDDGSVPPEQVQPSPQHCRSTSKPRPLSEPPLPT
# partner: B1 chain
# B3: Receptor tyrosine-protein kinase erbB-4 (Homo sapiens), Q15303 (parent)
# chain: MKPATGLWVWVSLLVAAGTVQPSDSQSVCAGTENKLSSLSDLEQQYRALRKYYENCEVVMGNLEITSIEHNRDLSFLRSVREVTGYVLVALNQFRYLPLENLRIIRGTKLYEDRYALAIFLNYRKDGNFGLQELGLKNLTEILNGGVYVDQNKFLCYADTIHWQDIVRNPWPSNLTLVSTNGSSGCGRCHKSCTGRCWGPTENHCQTLTRTVCAEQCDGRCYGPYVSDCCHRECAGGCSGPKDTDCFACMNFNDSGACVTQCPQTFVYNPTTFQLEHNFNAKYTYGAFCVKKCPHNFVVDSSSCVRACPSSKMEVEENGIKMCKPCTDICPKACDGIGTGSLMSAQTVDSSNIDKFINCTKINGNLIFLVTGIHGDPYNAIEAIDPEKLNVFRTVREITGFLNIQSWPPNMTDFSVFSNLVTIGGRVLYSGLSLLILKQQGITSLQFQSLKEISAGNIYITDNSNLCYYHTINWTTLFSTINQRIVIRDNRKAENCTAEGMVCNHLCSSDGCWGPGPDQCLSCRRFSRGRICIESCNLYDGEFREFENGSICVECDPQCEKMEDGLLTCHGPGPDNCTKCSHFKDGPNCVEKCPDGLQGANSFIFKYADPDRECHPCHPNCTQGCNGPTSHDCIYYPWTGHSTLPQHARTPLIAAGVIGGLFILVIVGLTFAVYVRRKSIKKKRALRRFLETELVEPLTPSGTAPNQAQLRILKETELKRVKVLGSGAFGTVYKGIWVPEGETVKIPVAIKILNETTGPKANVEFMDEALIMASMDHPHLVRLLGVCLSPTIQLVTQLMPHGCLLEYVHEHKDNIGSQLLLNWCVQIAKGMMYLEERRLVHRDLAARNVLVKSPNHVKITDFGLARLLEGDEKEYNADGGKMPIKWMALECIHYRKFTHQSDVWSYGVTIWELMTFGGKPYDGIPTREIPDLLEKGERLPQPPICTIDVYMVMVKCWMIDADSRPKFKELAAEFSRMARDPQRYLVIQGDDRMKLPSPNDSKFFQNLLDEEDLEDMMDAEEYLVPQAFNIPPPIYTSRARIDSNRSEIGHSPPPAYTPMSGNQFVYRDGGFAAEQGVSVPYRAPTSTIPEAPVAQGATAEIFDDSCCNGTLRKPVAPHVQEDSSTQRYSADPTVFAPERSPRGELDEEGYMTPMRDKPKQEYLNPVEENPFVSRRKNGDLQALDNPEYHNASNGPPKAEDEYVNEPLYLNTFANTLGKAEYLKNNILSMPEKAKKAFDNPDYWNHSLPPRSTLQHPDYLQEYSTKYFYKQNGRIRPIVAENPEYLSEFSLKPGTVLPPPPYRHRNTVV
# B4: Tyrosine-protein phosphatase non-receptor type 7 (Homo sapiens), P35236 (parent)
# chain: MVQAHGGRSRAQPLTLSLGAAMTQPPPEKTPAKKHVRLQERRGSNVALMLDVRSLGAVEPICSVNTPREVTLHFLRTAGHPLTRWALQRQPPSPKQLEEEFLKIPSNFVSPEDLDIPGHASKDRYKTILPNPQSRVCLGRAQSQEDGDYINANYIRGYDGKEKVYIATQGPMPNTVSDFWEMVWQEEVSLIVMLTQLREGKEKCVHYWPTEEETYGPFQIRIQDMKECPEYTVRQLTIQYQEERRSVKHILFSAWPDHQTPESAGPLLRLVAEVEESPETAAHPGPIVVHCSAGIGRTGCFIATRIGCQQLKARGEVDILGIVCQLRLDRGGMIQTAEQYQFLHHTLALYAGQLPEEPSP
# B5: Receptor tyrosine-protein kinase erbB-4 (Homo sapiens), Q15303 (parent)
# chain: B3 chain
# partner: B4 chain
# Variants of: B1
# Conditions: with erbb4_human ERBB4, Q15303
row,Variant,effect of a mutation on the interaction
1,C588S,with no effect

# Variants of: B1
# Conditions: with ret_human RET
row,Variant,effect of a mutation on the interaction
1,C588S,with no effect

# Variants of: B1
# Conditions: with igf1r_human IGF1R
# Target sequence in this assay (P08069 whole entry, looked up): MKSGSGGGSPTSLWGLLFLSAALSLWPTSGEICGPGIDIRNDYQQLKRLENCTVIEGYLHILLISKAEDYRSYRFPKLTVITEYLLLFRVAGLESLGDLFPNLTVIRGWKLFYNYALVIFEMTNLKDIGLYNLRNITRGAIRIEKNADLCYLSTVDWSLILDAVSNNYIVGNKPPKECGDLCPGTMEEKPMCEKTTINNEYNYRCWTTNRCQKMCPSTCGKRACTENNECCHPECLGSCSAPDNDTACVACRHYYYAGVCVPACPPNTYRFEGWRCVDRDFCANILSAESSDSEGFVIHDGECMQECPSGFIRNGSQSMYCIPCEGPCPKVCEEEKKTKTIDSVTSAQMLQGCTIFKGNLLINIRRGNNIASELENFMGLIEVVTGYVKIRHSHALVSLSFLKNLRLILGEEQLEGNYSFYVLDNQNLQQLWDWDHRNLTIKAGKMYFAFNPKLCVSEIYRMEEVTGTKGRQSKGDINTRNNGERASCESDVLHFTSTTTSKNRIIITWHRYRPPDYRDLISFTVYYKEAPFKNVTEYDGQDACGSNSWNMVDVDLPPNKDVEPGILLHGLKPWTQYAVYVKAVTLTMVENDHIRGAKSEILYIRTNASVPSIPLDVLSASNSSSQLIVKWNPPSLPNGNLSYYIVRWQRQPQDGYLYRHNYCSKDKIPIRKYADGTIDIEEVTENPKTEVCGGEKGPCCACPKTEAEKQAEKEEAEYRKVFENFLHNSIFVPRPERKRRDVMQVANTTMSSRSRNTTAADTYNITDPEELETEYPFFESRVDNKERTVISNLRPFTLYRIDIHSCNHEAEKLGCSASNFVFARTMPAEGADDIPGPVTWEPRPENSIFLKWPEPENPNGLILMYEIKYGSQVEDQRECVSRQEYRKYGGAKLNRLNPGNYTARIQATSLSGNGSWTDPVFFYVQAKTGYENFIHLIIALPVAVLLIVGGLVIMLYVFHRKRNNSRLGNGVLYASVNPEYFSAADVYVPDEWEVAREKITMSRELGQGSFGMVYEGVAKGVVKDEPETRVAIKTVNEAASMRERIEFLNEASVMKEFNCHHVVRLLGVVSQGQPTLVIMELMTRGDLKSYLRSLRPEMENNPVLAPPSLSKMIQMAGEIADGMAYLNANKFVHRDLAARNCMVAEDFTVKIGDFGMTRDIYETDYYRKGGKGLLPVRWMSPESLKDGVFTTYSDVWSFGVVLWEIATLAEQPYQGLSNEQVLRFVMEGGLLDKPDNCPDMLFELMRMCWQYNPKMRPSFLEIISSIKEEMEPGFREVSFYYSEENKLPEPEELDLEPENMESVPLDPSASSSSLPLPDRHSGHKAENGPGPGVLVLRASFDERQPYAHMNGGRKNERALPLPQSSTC
row,Variant,effect of a mutation on the interaction
1,C588S,decreasing interaction

# Variants of: B1
# Conditions: with ret_human RET
# Remark: another data set of the same source
row,Variant,effect of a mutation on the interaction
1,C588S,disrupting interaction
2,Y249F,increasing interaction
3,Y249F;D554A;C588S,disrupting interaction

# Variants of: B1
# Conditions: with ron_mouse Mst1r, Q62190
row,Variant,effect of a mutation on the interaction
1,C588S,disrupting interaction
2,Y249F,increasing interaction

# Variants of: B1
# Conditions: with ntrk1_human NTRK1, P04629
# Sequence of ntrk1_human NTRK1, P04629 (P04629 whole entry, looked up): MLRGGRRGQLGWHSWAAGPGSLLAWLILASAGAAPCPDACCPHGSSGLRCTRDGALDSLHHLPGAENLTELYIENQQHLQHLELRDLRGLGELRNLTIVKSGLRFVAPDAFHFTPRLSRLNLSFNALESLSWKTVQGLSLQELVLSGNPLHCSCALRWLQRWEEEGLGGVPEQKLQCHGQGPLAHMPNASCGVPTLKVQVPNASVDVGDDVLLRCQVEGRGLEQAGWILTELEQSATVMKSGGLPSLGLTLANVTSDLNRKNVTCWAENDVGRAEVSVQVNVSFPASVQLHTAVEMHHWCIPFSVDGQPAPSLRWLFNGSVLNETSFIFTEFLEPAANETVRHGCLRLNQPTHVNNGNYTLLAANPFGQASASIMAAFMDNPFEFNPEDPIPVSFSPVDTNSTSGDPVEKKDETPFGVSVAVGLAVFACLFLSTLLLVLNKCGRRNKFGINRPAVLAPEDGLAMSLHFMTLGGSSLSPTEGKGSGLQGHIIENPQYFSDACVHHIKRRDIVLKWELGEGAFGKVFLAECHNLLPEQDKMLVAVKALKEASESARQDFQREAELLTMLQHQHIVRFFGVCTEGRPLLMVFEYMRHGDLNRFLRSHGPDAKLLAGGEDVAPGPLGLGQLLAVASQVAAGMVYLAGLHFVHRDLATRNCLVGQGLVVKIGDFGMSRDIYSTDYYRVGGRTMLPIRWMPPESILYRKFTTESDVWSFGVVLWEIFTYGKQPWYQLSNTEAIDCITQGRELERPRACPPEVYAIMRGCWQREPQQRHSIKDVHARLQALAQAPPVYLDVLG
row,Variant,effect of a mutation on the interaction
1,C588S,with no effect

# Variants of: B1
# Conditions: with tie2_human TEK
row,Variant,effect of a mutation on the interaction
1,C588S,decreasing interaction

# Variants of: B1
# Conditions: with ron_mouse Mst1r
row,Variant,effect of a mutation on the interaction
1,C588S,increasing interaction

# Variants of: B1
# Conditions: with fgfr2_human FGFR2, P21802
# Sequence of fgfr2_human FGFR2, P21802 (P21802 whole entry, looked up): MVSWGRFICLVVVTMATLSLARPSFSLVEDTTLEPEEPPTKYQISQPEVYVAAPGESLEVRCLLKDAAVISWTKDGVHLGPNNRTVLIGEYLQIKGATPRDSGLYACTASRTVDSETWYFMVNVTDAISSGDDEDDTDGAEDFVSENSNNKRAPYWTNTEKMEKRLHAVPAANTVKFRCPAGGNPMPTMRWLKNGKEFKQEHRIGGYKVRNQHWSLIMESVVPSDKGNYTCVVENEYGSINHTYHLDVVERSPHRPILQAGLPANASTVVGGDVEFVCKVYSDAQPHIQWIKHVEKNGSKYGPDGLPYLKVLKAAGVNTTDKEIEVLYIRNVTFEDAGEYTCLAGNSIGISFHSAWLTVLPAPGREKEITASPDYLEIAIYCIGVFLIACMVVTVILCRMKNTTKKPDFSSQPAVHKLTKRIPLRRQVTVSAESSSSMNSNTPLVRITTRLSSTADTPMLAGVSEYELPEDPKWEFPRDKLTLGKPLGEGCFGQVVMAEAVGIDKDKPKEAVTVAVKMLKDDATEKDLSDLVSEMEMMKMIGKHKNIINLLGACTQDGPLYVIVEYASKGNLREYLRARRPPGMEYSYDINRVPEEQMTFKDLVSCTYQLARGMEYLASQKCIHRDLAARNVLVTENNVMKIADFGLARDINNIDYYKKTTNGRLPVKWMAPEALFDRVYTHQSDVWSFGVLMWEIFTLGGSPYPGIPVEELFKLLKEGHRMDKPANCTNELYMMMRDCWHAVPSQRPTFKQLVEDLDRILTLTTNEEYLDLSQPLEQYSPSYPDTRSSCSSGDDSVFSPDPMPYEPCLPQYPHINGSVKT
row,Variant,effect of a mutation on the interaction
1,C588S,disrupting interaction

# Variants of: B1
# Conditions: with fgfr4_human FGFR4, P22455
# Sequence of fgfr4_human FGFR4, P22455 (P22455 whole entry, looked up): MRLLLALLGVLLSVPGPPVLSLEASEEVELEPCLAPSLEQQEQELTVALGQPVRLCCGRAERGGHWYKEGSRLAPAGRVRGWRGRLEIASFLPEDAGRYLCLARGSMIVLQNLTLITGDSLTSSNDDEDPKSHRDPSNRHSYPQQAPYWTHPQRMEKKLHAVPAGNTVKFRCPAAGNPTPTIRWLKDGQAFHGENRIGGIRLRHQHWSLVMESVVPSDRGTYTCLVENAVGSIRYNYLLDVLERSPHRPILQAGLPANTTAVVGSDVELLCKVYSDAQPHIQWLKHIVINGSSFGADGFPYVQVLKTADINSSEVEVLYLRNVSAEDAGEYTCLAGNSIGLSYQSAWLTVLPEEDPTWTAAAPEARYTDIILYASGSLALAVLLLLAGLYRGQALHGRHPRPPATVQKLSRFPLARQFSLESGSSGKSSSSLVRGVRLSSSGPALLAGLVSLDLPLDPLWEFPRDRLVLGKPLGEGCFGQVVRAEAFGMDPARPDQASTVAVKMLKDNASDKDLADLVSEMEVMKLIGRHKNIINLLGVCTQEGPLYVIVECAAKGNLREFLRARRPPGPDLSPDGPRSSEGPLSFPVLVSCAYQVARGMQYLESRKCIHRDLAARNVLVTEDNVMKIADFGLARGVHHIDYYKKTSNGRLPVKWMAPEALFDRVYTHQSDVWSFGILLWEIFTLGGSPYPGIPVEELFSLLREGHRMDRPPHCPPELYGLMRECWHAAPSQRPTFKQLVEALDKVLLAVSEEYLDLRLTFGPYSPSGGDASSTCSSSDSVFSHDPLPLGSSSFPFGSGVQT
row,Variant,effect of a mutation on the interaction
1,C588S,decreasing interaction

# Variants of: B1
# Conditions: with vgfr2_human KDR
row,Variant,effect of a mutation on the interaction
1,C588S,with no effect

# Variants of: B1
# Conditions: with igf1r_human IGF1R
# Remark: another data set of the same source
# Target sequence in this assay (P08069 whole entry, looked up): as the sequence (P08069 whole entry, looked up) above
row,Variant,effect of a mutation on the interaction
1,C588S,with no effect

# Variants of: B2
# Conditions: with ptprr_human PTPRR, Q15256
row,Variant,effect of a mutation on the interaction
1,K1091A,decreasing interaction

# Variants of: B3
# Conditions: with ptn6_human PTPN6, P29350
# Sequence of ptn6_human PTPN6, P29350 (P29350 whole entry): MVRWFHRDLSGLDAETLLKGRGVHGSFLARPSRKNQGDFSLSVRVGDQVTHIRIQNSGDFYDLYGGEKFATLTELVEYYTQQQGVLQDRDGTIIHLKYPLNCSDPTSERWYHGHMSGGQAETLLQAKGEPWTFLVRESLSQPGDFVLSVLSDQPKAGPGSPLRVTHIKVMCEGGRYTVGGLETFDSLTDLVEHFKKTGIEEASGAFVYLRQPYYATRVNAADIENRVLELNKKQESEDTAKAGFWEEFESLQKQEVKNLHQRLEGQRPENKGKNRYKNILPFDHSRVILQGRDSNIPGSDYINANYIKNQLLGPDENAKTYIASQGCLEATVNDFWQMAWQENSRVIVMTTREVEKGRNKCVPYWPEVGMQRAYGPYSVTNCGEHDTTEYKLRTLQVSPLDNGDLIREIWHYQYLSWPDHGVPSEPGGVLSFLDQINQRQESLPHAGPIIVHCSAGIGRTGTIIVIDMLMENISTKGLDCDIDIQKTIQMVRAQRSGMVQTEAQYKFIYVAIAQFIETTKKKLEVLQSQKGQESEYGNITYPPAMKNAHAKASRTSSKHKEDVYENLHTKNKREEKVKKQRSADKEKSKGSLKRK
row,Variant,effect of a mutation on the interaction
1,D843N,with no effect

# Variants of: B4
# Conditions: with erbb4_human ERBB4, Q15303
row,Variant,effect of a mutation on the interaction
1,MVQAHGGRSRAQPLTLSLGAAMTQPPPEKTPAKKHVRLQERRGSNVALMLDVRSLGAVEPICSVNTPREVTLHFLRTAGHPLTRWALQRQPPSPKQLEEEFLKIPSNFVSPEDLDIPGHASKDRYKTILPNPQSRVCLGRAQSQEDGDYINANYIRGYDGKEKVYIATQGPMPNTVSDFWEMVWQEEVSLIVMLTQLREGKEKCVHYWPTEEETYGPFQIRIQDMKECPEYTVRQLTIQYQEERRSVKHILFSAWPAHQTPESAGPLLRLVAEVEESPETAAHPGPIVVHSSAGIGRTGCFIATRIGCQQLKARGEVDILGIVCQLRLDRGGMIQTAEQYQFLHHTLALYAGQLPEEPSP [D257A;C291S],with no effect
2,MVQAHGGRSRAQPLTLSLGAAMTQPPPEKTPAKKHVRLQERRGSNVALMLDVRSLGAVEPICSVNTPREVTLHFLRTAGHPLTRWALQRQPPSPKQLEEEFLKIPSNFVSPEDLDIPGHASKDRYKTILPNPQSRVCLGRAQSQEDGDYINANYIRGYDGKEKVYIATQGPMPNTVSDFWEMVWQEEVSLIVMLTQLREGKEKCVHYWPTEEETYGPFQIRIQDMKECPEYTVRQLTIQYQEERRSVKHILFSAWPDHQTPESAGPLLRLVAEVEESPETAAHPGPIVVHSSAGIGRTGCFIATRIGCQQLKARGEVDILGIVCQLRLDRGGMIQTAEQYQFLHHTLALYAGQLPEEPSP [C291S],with no effect

# Variants of: B4
# Conditions: with igf1r_human IGF1R
# Target sequence in this assay (P08069 whole entry, looked up): as the sequence (P08069 whole entry, looked up) above
row,Variant,effect of a mutation on the interaction
1,MVQAHGGRSRAQPLTLSLGAAMTQPPPEKTPAKKHVRLQERRGSNVALMLDVRSLGAVEPICSVNTPREVTLHFLRTAGHPLTRWALQRQPPSPKQLEEEFLKIPSNFVSPEDLDIPGHASKDRYKTILPNPQSRVCLGRAQSQEDGDYINANYIRGYDGKEKVYIATQGPMPNTVSDFWEMVWQEEVSLIVMLTQLREGKEKCVHYWPTEEETYGPFQIRIQDMKECPEYTVRQLTIQYQEERRSVKHILFSAWPAHQTPESAGPLLRLVAEVEESPETAAHPGPIVVHSSAGIGRTGCFIATRIGCQQLKARGEVDILGIVCQLRLDRGGMIQTAEQYQFLHHTLALYAGQLPEEPSP [D257A;C291S],with no effect
2,MVQAHGGRSRAQPLTLSLGAAMTQPPPEKTPAKKHVRLQERRGSNVALMLDVRSLGAVEPICSVNTPREVTLHFLRTAGHPLTRWALQRQPPSPKQLEEEFLKIPSNFVSPEDLDIPGHASKDRYKTILPNPQSRVCLGRAQSQEDGDYINANYIRGYDGKEKVYIATQGPMPNTVSDFWEMVWQEEVSLIVMLTQLREGKEKCVHYWPTEEETYGPFQIRIQDMKECPEYTVRQLTIQYQEERRSVKHILFSAWPDHQTPESAGPLLRLVAEVEESPETAAHPGPIVVHSSAGIGRTGCFIATRIGCQQLKARGEVDILGIVCQLRLDRGGMIQTAEQYQFLHHTLALYAGQLPEEPSP [C291S],with no effect

# Variants of: B4
# Conditions: with igf1r_human IGF1R
# Remark: another data set of the same source
# Target sequence in this assay (P08069 whole entry, looked up): as the sequence (P08069 whole entry, looked up) above
row,Variant,effect of a mutation on the interaction
1,MVQAHGGRSRAQPLTLSLGAAMTQPPPEKTPAKKHVRLQERRGSNVALMLDVRSLGAVEPICSVNTPREVTLHFLRTAGHPLTRWALQRQPPSPKQLEEEFLKIPSNFVSPEDLDIPGHASKDRYKTILPNPQSRVCLGRAQSQEDGDYINANYIRGYDGKEKVYIATQGPMPNTVSDFWEMVWQEEVSLIVMLTQLREGKEKCVHYWPTEEETYGPFQIRIQDMKECPEYTVRQLTIQYQEERRSVKHILFSAWPAHQTPESAGPLLRLVAEVEESPETAAHPGPIVVHSSAGIGRTGCFIATRIGCQQLKARGEVDILGIVCQLRLDRGGMIQTAEQYQFLHHTLALYAGQLPEEPSP [D257A;C291S],increasing interaction
2,MVQAHGGRSRAQPLTLSLGAAMTQPPPEKTPAKKHVRLQERRGSNVALMLDVRSLGAVEPICSVNTPREVTLHFLRTAGHPLTRWALQRQPPSPKQLEEEFLKIPSNFVSPEDLDIPGHASKDRYKTILPNPQSRVCLGRAQSQEDGDYINANYIRGYDGKEKVYIATQGPMPNTVSDFWEMVWQEEVSLIVMLTQLREGKEKCVHYWPTEEETYGPFQIRIQDMKECPEYTVRQLTIQYQEERRSVKHILFSAWPDHQTPESAGPLLRLVAEVEESPETAAHPGPIVVHSSAGIGRTGCFIATRIGCQQLKARGEVDILGIVCQLRLDRGGMIQTAEQYQFLHHTLALYAGQLPEEPSP [C291S],disrupting interaction

# Variants of: B5
# Conditions: with ptn7_human PTPN7, P35236
row,Variant,effect of a mutation on the interaction
1,D843N,increasing interaction
